Data set [1] has as its system T1, phosphorylated abl-specific substrate optical probe (SEQ. I.D. No. 4).
T1 sequence: AEAIYAAPLK

Data set [2] deals with T2, phosphorylated Src-2-specific substrate optical probe (SEQ. ID. NO: 29).
T2 sequence: RRFHSRRRR

The target in the next data set is protein kinase A. Put plainly: cell-based or functional assay.
In data set [3] the test system is T3, Src-1 optical probe (GEEEIYGEIEK, SEQ. ID. NO: 3).
T3 sequence: GEEEIYGEIEK

Data set [4] relates to T4, Src-2 optical probe (GEEEIYGVIEK, SEQ. ID. NO: 29), non-phosphorylated.
T4 sequence: GEEEIYGVIEK

Data set [5] concerns the target T5, abl-specific substrate optical probe (AEAIYAAPL, SEQ. ID. NO: 4), non-phosphorylated.
T5 chain: AEAIYAAPLK

This is an account of results in US20030087328A1.

In the case of “protein tyrosine phosphatase-B (PTP-B) agarose (Upstate Biotechnology)”, in data set [1], the “relative rate of dephosphorylation” value is “the Src-2 substrate is more readily de-phosphorylated than the abl substrate”. Also, in data set [2], the “Kcat/Km (dephosphorylation)” value is listed as “nearly 10^8 M^-1sec^-1”; the “apparent Km (Michaelis-Menten plot, dephosphorylation)” value is recorded as “the apparent Km for the Src-2optical probe is 1.3 µM”; the “kcat (dephosphorylation)” value is listed as “the kcat is 79 sec^-1”; the “relative rate of dephosphorylation” value was “the Src-2 substrate is more readily de-phosphorylated than the abl substrate”.

Turning to “PKI (substrate competitive inhibitor of protein kinase A) (peptide)”, the 460/530 Emission Ratio, Kinase + the inhibitor PKI (2.8 µM) (negative control 11.67, positive control 2.11) (460/530 emission ratio) with protein kinase A came out at 11.7.

For Src kinase (Upstate Biotechnology), the “apparent Km (fluorescence measurements after protease incubation)” value in data set [3] was 11 µM and 19 µM respectively; in data set [4], 11 µM and 19 µM respectively.

B1: Recombinant v-Abl kinase (protein)
chain: YITPVNSLEKHSWYHGPVSRNAAEYLLSSGINGSFLVRESESSPGQRSISLRYEGRVYHYRINTASDGKLYVSSESRFNTLAELVHHHSTVADGLITTLHYPAPKRNKPTIYGVSPNYDKWEMERTDITMKHKLGGGQYGEVYEGVWKKYSLTVAVKTLKEDTMEVEEFLKEAAVMKEIKHPNLVQLLGVCTREPPFYIITEFMTYGNLLDYLRECNRQEVSAVVLLYMATQISSAMEYLEKKNFIHRDLAARNCLVGENHLVKVADFGLSRLMTGDTYTAHAGAKFPIKWTAPESLAYNKFSIKSDVWAFGVLLWEIATYGMSPYPGIDLSQVYELLEKDYRMERPEGCPEKVYELMRACWQWNPSDRPSFAEIHQAFETMFQESSISDEVEKELGKRGTRG
Consider B1, for which, in data set [5], the “apparent Km for the substrate (kinetics of phosphorylation, FRET/chymotrypsin read-out)” value is “apparent Km for the substrate of 40 µM” and the “turnover (kcat) of the optical probe” value was “The turnover of the optical probe by v-Abl was 9.5 sec^-1”.
